In patent publication US20170002061A1 (ALLIGATOR BIOSCIENCE, published 2017):
Changes are numbered by the printed parent chain.

B1: B03 (antibody, V domains shown)
VH: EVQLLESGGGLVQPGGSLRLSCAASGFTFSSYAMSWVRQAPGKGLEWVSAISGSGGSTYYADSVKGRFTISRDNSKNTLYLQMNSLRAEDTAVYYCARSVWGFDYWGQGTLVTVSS
VL: DIQMTQSPSSLSASVGDRVTITCRASQSISSYLNWYQQKPGKAPKLLIYAASSLQSGVPSRFSGSGSGTDFTLTISSLQPEDFATYYCQQGYHVWLYTFGQGTKLEIK
B2: 1136/1137 (antibody, V domains shown)
VH: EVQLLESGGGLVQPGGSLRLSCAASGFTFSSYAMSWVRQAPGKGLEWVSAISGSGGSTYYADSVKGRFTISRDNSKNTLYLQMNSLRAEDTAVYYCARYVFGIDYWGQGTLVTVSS
VL: B1 VL with G91A, H93Y, V94A, W95G, Y97F
notes: From library AL2
B3: 1146/1147 (antibody, V domains shown)
VH: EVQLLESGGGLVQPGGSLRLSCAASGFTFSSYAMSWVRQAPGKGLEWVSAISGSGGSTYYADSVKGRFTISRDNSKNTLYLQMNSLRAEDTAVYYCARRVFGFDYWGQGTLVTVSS
VL: DIQMTQSPSSLSASVGDRVTITCRASQSISSYLNWYQQKPGKAPKLLIYAASSLQSGVPSRFSGSGSGTDFTLTISSLQPEDFATYYCQQYYYYPFTFGQGTKLEIK
notes: From library AL2
B4: LTBR-3 (antibody, V domains shown)
VH: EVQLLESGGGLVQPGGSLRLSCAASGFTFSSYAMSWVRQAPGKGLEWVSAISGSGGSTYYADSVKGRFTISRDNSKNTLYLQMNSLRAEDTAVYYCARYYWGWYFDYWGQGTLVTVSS
VL: B3 VL with Y91G, Y92W, Y93W, F96L
notes: From library AL1
B5: 1107/1108 (antibody, V domains shown)
VH: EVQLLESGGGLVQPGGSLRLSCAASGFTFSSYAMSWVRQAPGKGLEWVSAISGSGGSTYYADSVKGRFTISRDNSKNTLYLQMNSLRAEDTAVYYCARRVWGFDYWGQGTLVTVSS
VL: B3 VL with Y92G, Y93V
notes: From library AL1
B6: 1148/1149 (antibody, V domains shown)
VH: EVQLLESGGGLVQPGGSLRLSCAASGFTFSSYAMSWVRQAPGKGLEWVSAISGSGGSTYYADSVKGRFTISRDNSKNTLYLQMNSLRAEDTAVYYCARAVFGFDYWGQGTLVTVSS
VL: B3 VL with Y91A, Y94F, F96H
notes: From library AL2

Experiments:
[1] = biological target: CD40 on B cells (UniProt P25942 21-277, limits assumed); assay: cell-based or functional assay
[2] = biological target: T1, Fc-fused CD40 (Ancell, #504-820) (human, UniProt P25942 21-193); assay: ELISA, Fc-fused CD40 coated at 0.05 ug/ml, IgG in serial dilution, anti human Ig-Fc-HRP
T1 construct: not shown: Fc part of a bought fusion protein
Method: For the CD40 binding ELISA, high binding flat bottom LIA plates (Greiner #655074) were coated with Fc-fused CD40 (Ancell, #504-820) at 0.05 μg/ml, and milk powder were used at 3% for blocking and at 1% for dilution. The antibodies to be tested were added in serial dilutions starting at 2000 ng/ml and detection was carried out using HRP conjugated goat anti human Ig-Fc (Jackson ImmunoResearch, #109-035-098) and Super Signal Pico Chemiluminescent (ThermoScientific, #37069) was used as substrate.

[3] = biological target: T2, LTBRhfc (R&Dsystems, USA) (human, UniProt P36941 28-227, limits assumed); assay: SPR (Biacore 3000), LTBRhfc amine-coupled to CM5, IgG as analyte, 37 C, pH 7.3
T2 construct: Bought protein; also called Fc-fused LTBR (R&D Systems, #629-LR); not shown: Fc part ('hfc') of a bought fusion protein
Method: The LTBR binding antibody clones were screened, selected and cloned into full IgG format as described above for CD40. Binding to LTBR for two selected anti-LTBR antibody clones was characterized by surface plasmon resonance (SPR). SPR analysis of LTBR antibodies was performed according to standard protocols. The LTBRhfc (R&Dsystems, USA) was immobilized to the BIAcore sensorchip, CM5, using conventional amine coupling. The anti-LTBR antibodies (serially diluted ⅓ from 1-0.012 nM) were analysed for binding in HBS-P (GE, BR-1003-68) at a flow rate of 30 μl/min at 37° C. and pH 7.3. The association was followed for 3 minutes and the dissociation for 10 minutes. Regeneration was performed twice using 50 mM NaOH for 30 seconds. The kinetic parameters and the affinity constants were calculated using BIAevaluation 4.1 software, and samples were run, using the Biacore 3000 instrument according to manufacturer's protocols.

Sequence of CD40 on B cells (P25942 21-277 limits assumed): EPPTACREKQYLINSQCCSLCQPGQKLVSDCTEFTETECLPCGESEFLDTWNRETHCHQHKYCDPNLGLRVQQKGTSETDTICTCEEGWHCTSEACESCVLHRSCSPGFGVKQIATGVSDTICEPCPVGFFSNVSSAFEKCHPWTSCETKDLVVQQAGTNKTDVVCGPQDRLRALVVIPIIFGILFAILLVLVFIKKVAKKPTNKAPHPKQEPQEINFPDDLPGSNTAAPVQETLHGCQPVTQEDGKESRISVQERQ
T2 sequence (P36941 28-227 limits assumed): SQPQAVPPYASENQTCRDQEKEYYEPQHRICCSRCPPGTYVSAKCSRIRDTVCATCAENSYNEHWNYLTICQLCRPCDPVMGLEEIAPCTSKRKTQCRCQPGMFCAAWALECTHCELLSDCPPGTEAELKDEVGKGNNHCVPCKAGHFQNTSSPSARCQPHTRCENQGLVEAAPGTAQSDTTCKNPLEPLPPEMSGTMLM
T1 sequence (P25942 21-193 limits assumed): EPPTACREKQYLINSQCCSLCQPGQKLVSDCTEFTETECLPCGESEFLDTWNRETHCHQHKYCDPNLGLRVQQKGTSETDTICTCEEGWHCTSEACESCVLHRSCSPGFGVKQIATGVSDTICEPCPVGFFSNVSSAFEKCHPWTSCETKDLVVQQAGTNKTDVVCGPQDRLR

Row | EC50 B cell (ug/ml); B cell proliferation, ATP content by Cell-titer glow [1] [µg/mL] | EC50 [2] [µg/mL] | Kd [3] [pM] | koff [3] [s⁻¹] | kon [3] [M⁻¹ s⁻¹] | Binder
1 | 0.44 |  |  |  |  | B1
2 | 1 | 1.4 |  |  |  | B2
3 | 3.6 | 0.58 |  |  |  | B3
4 |  |  | 734 | 0.00158 | 2.23e+06 | B4
5 | 0.7 | 0.034 |  |  |  | B5
6 | 2.3 | 2.2 |  |  |  | B6
